The text below walks through data of paper PMC7672554, “Selective Metal Ion Utilization Contributes to the Transformation of the Activity of Yeast Polymerase η from DNA Polymerization toward RNA Polymerization” (International Journal of Molecular Sciences, 2020).

What all share (assay): steady-state primer extension, Cy3-labelled RNA primer/DNA template, gel quantitation
Assay type in all cases: biochemical, Saccharomyces cerevisiae

Substrate in data set [1]: Nc1ccn([C@@H]2O[C@H](COP(=O)(O)OP(=O)(O)OP(=O)(O)O)[C@@H](O)[C@H]2O)c(=O)n1
As to conditions: RNA primer, template G (correct pair), 5 mM Mn2+, 20 nM primer/template, 25 mM Tris/HCl pH 7.5, 30 °C. From the text: (§1) steady-state primer extension, Cy3-labelled RNA primer/DNA template, gel quantitation on Polη (yeast Polymerase η)

Substrate in data set [2]: Nc1nc2c(ncn2[C@@H]2O[C@H](COP(=O)(O)OP(=O)(O)OP(=O)(O)O)[C@@H](O)[C@H]2O)c(=O)[nH]1
Particulars: RNA primer, template C (correct pair), 5 mM Mn2+, 20 nM primer/template, 25 mM Tris/HCl pH 7.5, 30 °C.
Source text: as §1

Substrate in data set [3]: Nc1ncnc2c1ncn2[C@@H]1O[C@H](COP(=O)(O)OP(=O)(O)OP(=O)(O)O)[C@@H](O)[C@H]1O
Particulars: RNA primer, template T (correct pair), 5 mM Mn2+, 20 nM primer/template, 25 mM Tris/HCl pH 7.5, 30 °C.
Source text: as §1

Substrate in data set [4]: O=c1ccn([C@@H]2O[C@H](COP(=O)(O)OP(=O)(O)OP(=O)(O)O)[C@@H](O)[C@H]2O)c(=O)[nH]1
Particulars: RNA primer, template A (correct pair), 5 mM Mn2+, 20 nM primer/template, 25 mM Tris/HCl pH 7.5, 30 °C.
Source text: as §1

B1: Polη (yeast Polymerase η) (Saccharomyces cerevisiae S288C) (protein)
chain: MSKFTWKELIQLGSPSKAYESSLACIAHIDMNAFFAQVEQMRCGLSKEDPVVCVQWNSIIAVSYAARKYGISRMDTIQEALKKCSNLIPIHTAVFKKGEDFWQYHDGCGSWVQDPAKQISVEDHKVSLEPYRRESRKALKIFKSACDLVERASIDEVFLDLGRICFNMLMFDNEYELTGDLKLKDALSNIREAFIGGNYDINSHLPLIPEKIKSLKFEGDVFNPEGRDLITDWDDVILALGSQVCKGIRDSIKDILGYTTSCGLSSTKNVCKLASNYKKPDAQTIVKNDCLLDFLDCGKFEITSFWTLGGVLGKELIDVLDLPHENSIKHIRETWPDNAGQLKEFLDAKVKQSDYDRSTSNIDPLKTADLAEKLFKLSRGRYGLPLSSRPVVKSMMSNKNLRGKSCNSIVDCISWLEVFCAELTSRIQDLEQEYNKIVIPRTVSISLKTKSYEVYRKSGPVAYKGINFQSHELLKVGIKFVTDLDIKGKNKSYYPLTKLSMTITNFDIIDLQKTVVDMFGNQVHTFKSSAGKEDEEKTTSSKADEKTPKLECCKYQVTFTDQKALQEHADYHLALKLSEGLNGAEESSKNLSFGEKRLLFSRKRPNSQHTATPQKKQVTSSKNILSFFTRKK
notes: overexpressed in yeast as N-terminal GST fusion, GST removed with PreScission protease; no truncation stated
What is called Km is the substrate concentration at which the rate is half of its maximum. As usually defined, the kcat is the number of substrate molecules converted per active site and unit of time at saturation. As a reminder, the kcat/Km is the turnover number divided by the Michaelis constant. As to B1, the Km came to 1.89 ± 0.42 µM in data set [1], 2.55 ± 0.63 µM in data set [2], 2.51 ± 0.64 µM in data set [3] and 12.8 ± 2.25 µM in data set [4]. Besides, the kcat was determined as 0.078 ± 0.00367 s⁻¹ in data set [1], 0.0845 ± 0.0045 s⁻¹ in data set [2], 0.0435 ± 0.00233 s⁻¹ in data set [3] and 0.0585 ± 0.00317 s⁻¹ in data set [4]. For the same protein, the catalytic efficiency (kcat/Km) in data set [1] amounted to 41300 M⁻¹ s⁻¹; in data set [2], 33200 M⁻¹ s⁻¹; in data set [3] it was 17300 M⁻¹ s⁻¹; in data set [4], 4500 M⁻¹ s⁻¹.
